Laboratory results published in US20100196390A1 (RINAT NEUROSCIENCE, published 2010).
Residue numbers refer to the chain shown, from its start.

B1: 4B12-4 (Fab, V domains shown)
VH: QVQLVQSGAEVKKPGASVKVSCKASGYTFTNYDIIWVRQAPGQGLEWMGYINPYNARREYNEKFKGRVTMTRDTSTSTVYMELSSLRSEDTAVYYCARLLKYRRFRYYAIDYWGQGTTVTVSS
VL: DIQMTQSPSSLSASVGDRVTITCRASEPVYSNVAWYQQKPGKAPKLLIYAASNLQSGVPSRFSGSGSGTDYTFTISSLQPEDIATYYCQHFWGSPFTFGQGTKLEIK
notes: Fab
B2: 4B12-28 (Fab, V domains shown)
VH: B1 VH with A56G, F105E
VL: B1 VL
notes: Fab
B3: 5-F1 (Fab, V domains shown)
VH: B1 VH with D33V, I35L, A56D, R57G, R58T, E59K, R106K
VL: B1 VL with P28N, V33L, Y71F, G93Y, T97L
notes: Fab
B4: 4B12-16 (Fab, V domains shown)
VH: B1 VH with P53A, A56G
VL: B1 VL
notes: Fab
B5: 8-D2 (Fab, V domains shown)
VH: B1 VH with D33V, I35L, A56D, R57G, R58T, E59K, R106S, I110A
VL: B1 VL with P28N, V33L, Y71F, H90N, G93Y
notes: Fab
B6: 4B12-24 (Fab, V domains shown)
VH: B1 VH with A56G, R106S
VL: B1 VL
notes: Fab
B7: 5-B8 (Fab, V domains shown)
VH: B1 VH with D33V, I35L, A56D, R57G, R58T, E59K
VL: B1 VL with P28N, V33L, Y71F, H90Q, G93Y
notes: Fab
B8: 4B12-8 (Fab, V domains shown)
VH: B1 VH with A56G, E59K
VL: B1 VL
notes: Fab
B9: 8-H7 (Fab, V domains shown)
VH: B1 VH with D33V, I35L, A56D, R57G, R58T, E59K, R106S, Y107F
VL: B1 VL with P28N, V33L, Y71F, W92V, G93Y
notes: Fab
B10: 5-B1 (Fab, V domains shown)
VH: B1 VH with D33V, I35L, A56D, R57G, R58T, E59K, R106T, D111H
VL: B1 VL with P28N, V33L, Y71F, G93Y
notes: Fab
B11: 7-F1 (Fab, V domains shown)
VH: B1 VH with D33V, I35L, A56D, R57G, R58T, E59K
VL: B1 VL with P28N, V33L, Y71F, H90N, G93Y
notes: Fab
B12: 4B12-5 (Fab, V domains shown)
VH: B1 VH with A56D
VL: B1 VL
notes: Fab
B13: 4B12-19 (Fab, V domains shown)
VH: B1 VH with A56G, Y60A
VL: B1 VL
notes: Fab
B14: 4B12-25 (Fab, V domains shown)
VH: B1 VH with A56G, K101R
VL: B1 VL
notes: Fab
B15: 6-B4 (Fab, V domains shown)
VH: B1 VH with D33V, I35L, A56D, R57G, R58T, E59K, R106Q
VL: B1 VL with P28N, V33L, Y71F, G93Y
notes: Fab
B16: 4B12-13 (Fab, V domains shown)
VH: B1 VH with A56G, E62A
VL: B1 VL
notes: Fab
B17: 7-C11 (Fab, V domains shown)
VH: B1 VH with D33V, I35L, A56D, R57G, R58T, E59K, R106S
VL: B1 VL with P28N, V33L, Y71F, W92K, G93Y
notes: Fab
B18: 4B12-20 (Fab, V domains shown)
VH: B1 VH with A56G, N61A
VL: B1 VL
notes: Fab
B19: 4B12-21 (Fab, V domains shown)
VH: B1 VH with A56G, K101A
VL: B1 VL
notes: Fab
B20: 5-G4 (Fab, V domains shown)
VH: B1 VH with D33V, I35L, A56D, R57G, R58T, E59K, R106S
VL: B1 VL with P28N, V33L, Y71F
notes: Fab
B21: 4B12-23 (Fab, V domains shown)
VH: B1 VH with A56G, R104A
VL: B1 VL
notes: Fab
B22: 4B12-27 (Fab, V domains shown)
VH: B1 VH with A56G, Y102A
VL: B1 VL
notes: Fab
B23: 6-D12 (Fab, V domains shown)
VH: B1 VH with D33V, I35L, A56D, R57G, R58T, E59K
VL: B1 VL with P28N, V33L, Y71F, G93A
notes: Fab
B24: 4B12-29 (Fab, V domains shown)
VH: B1 VH with A56G, F105A
VL: B1 VL
notes: Fab
B25: 4B12-6 (Fab, V domains shown)
VH: B1 VH with A56G, R57G
VL: B1 VL
notes: Fab
B26: 6-B11 (Fab, V domains shown)
VH: B1 VH with D33V, I35L, A56D, R57G, R58T, E59K, R106S
VL: B1 VL with P28N, V33L, Y71F, G93Q
notes: Fab
B27: 5-E2 (Fab, V domains shown)
VH: B1 VH with D33V, I35L, A56D, R57G, R58T, E59K, R106K
VL: B1 VL with P28N, V33L, Y71F, G93Y
notes: Fab
B28: 4B12-17 (Fab, V domains shown)
VH: B1 VH with Y54A, A56G
VL: B1 VL
notes: Fab
B29: 7-B9 (Fab, V domains shown)
VH: B1 VH with D33V, I35L, A56D, R57G, R58T, E59K, R106S, Y112V
VL: B1 VL with P28N, V33L, Y71F, G93Y, F96W
notes: Fab
B30: 4B12-7 (Fab, V domains shown)
VH: B1 VH with A56G, R58T
VL: B1 VL
notes: Fab
B31: 5-D1 (Fab, V domains shown)
VH: B1 VH with D33V, I35L, A56D, R57G, R58T, E59K, Y112V
VL: B1 VL with P28N, V33L, Y71F, H90N, G93Y
notes: Fab
B32: 6-A6 (Fab, V domains shown)
VH: B1 VH with D33V, I35L, A56D, R57G, R58T, E59K, R106K
VL: B1 VL with P28N, V33L, Y71F, G93Y, T97V
notes: Fab
B33: 6-C10 (Fab, V domains shown)
VH: B1 VH with D33V, I35L, A56D, R57G, R58T, E59K
VL: B1 VL with P28N, V33L, Y71F, G93Y, P95W
notes: Fab
B34: 8-C8 (Fab, V domains shown)
VH: B1 VH with D33V, I35L, A56D, R57G, R58T, E59K
VL: B1 VL with P28N, V33L, Y71F, G93Y, T97G
notes: Fab
B35: 4B12-26 (Fab, V domains shown)
VH: B1 VH with A56G, R106A
VL: B1 VL
notes: Fab
B36: 4B12-15 (Fab, V domains shown)
VH: B1 VH with N52A, A56G
VL: B1 VL
notes: Fab
B37: 6-H12 (Fab, V domains shown)
VH: B1 VH with D33V, I35L, A56D, R57G, R58T, E59K, R106S
VL: B1 VL with P28N, V33L, Y71F, G93H
notes: Fab
B38: 4B12-14 (Fab, V domains shown)
VH: B1 VH with N52S, A56G
VL: B1 VL
notes: Fab
B39: 5-B2 (Fab, V domains shown)
VH: B1 VH with D33V, I35L, A56D, R57G, R58T, E59K, R106S
VL: B1 VL with P28N, V33L, Y71F, W92D, G93Y
notes: Fab
B40: 7-B8 (Fab, V domains shown)
VH: B1 VH with D33V, I35L, A56D, R57G, R58T, E59K
VL: B1 VL with P28N, V33L, Y71F, G93Y, F96C
notes: Fab
B41: 6-E10 (Fab, V domains shown)
VH: B1 VH with D33V, I35L, A56D, R57G, R58T, E59K, R104P, R106S
VL: B1 VL with P28N, V33L, Y71F, W92S, G93L
notes: Fab
B42: 4B12-18 (Fab, V domains shown)
VH: B1 VH with N55A, A56G
VL: B1 VL
notes: Fab
B43: 4B12-22 (Fab, V domains shown)
VH: B1 VH with A56G, R103A
VL: B1 VL
notes: Fab
B44: 8-B2 (Fab, V domains shown)
VH: B1 VH with D33V, I35L, A56D, R57G, R58T, E59K
VL: B1 VL with P28N, V33L, Y71F, W92Y, G93Y
notes: Fab
B45: 7-D1 (Fab, V domains shown)
VH: B1 VH with D33V, I35L, A56D, R57G, R58T, E59K, R106S, Y112V
VL: B1 VL with P28N, V33L, Y71F, G93Y, S94L
notes: Fab
B46: 8-G2 (Fab, V domains shown)
VH: B1 VH with D33V, I35L, A56D, R57G, R58T, E59K, Y107F
VL: B1 VL with P28N, V33L, Y71F, W92G, G93Y, T97I
notes: Fab
B47: 7-B1 (Fab, V domains shown)
VH: B1 VH with D33V, I35L, A56D, R57G, R58T, E59K
VL: B1 VL with P28N, V33L, Y71F, G93Y, T97K
notes: Fab

biological target: TrkB (Homo sapiens (Human), UniProt Q16620 32-430); test: koff of Fab at 25 C; T1/2=Log2/koff
Sequence (Q16620 32-430 limits assumed): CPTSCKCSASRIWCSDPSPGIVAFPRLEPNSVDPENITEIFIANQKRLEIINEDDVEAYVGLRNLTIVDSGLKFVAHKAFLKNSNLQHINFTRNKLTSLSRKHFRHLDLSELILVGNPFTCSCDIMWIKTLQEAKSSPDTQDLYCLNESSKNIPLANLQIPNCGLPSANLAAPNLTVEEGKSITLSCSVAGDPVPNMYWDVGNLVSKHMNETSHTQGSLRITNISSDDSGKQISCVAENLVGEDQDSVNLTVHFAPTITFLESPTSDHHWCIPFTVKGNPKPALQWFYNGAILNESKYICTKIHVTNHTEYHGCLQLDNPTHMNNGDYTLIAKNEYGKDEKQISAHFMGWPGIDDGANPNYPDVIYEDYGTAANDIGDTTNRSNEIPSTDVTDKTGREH
Procedure, shortened: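 Monovalent Fab fragments were tested at 25° C by surface plasmon resonance on a Biacore instrument, against TrkB extracellular-domain monomer amine-coupled to the chip at low capacity. Fabs were injected low to high as a 3-fold serial dilution from 100 nM for 84 sec, with a 10 minute dissociation after the top sample. The dissociation half-life was calculated from koff, which was fitted to a Langmuir binding model in BIAevaluation. The formula used was T1/2 = Log 2/koff.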

T1/2 | Binder
11.4 min | B1
5.4 min | B2
1.6 min | B3
5.6 min | B4
1.81 min | B5
6 min | B6
1.82 min | B7
13.8 min | B8
1.18 min | B9
1.36 min | B10
0.54 min | B11
16.1 min | B12
13.1 min | B13
1.1 min | B14
1.55 min | B15
13.7 min | B16
1.07 min | B17
12.2 min | B18
0.3 min | B19
1.35 min | B20
10.8 min | B21
0.5 min | B22
1.7 min | B23
5.6 min | B24

T1/2 | Binder
3.7 min | B25
1.44 min | B26
1.66 min | B27
1 min | B28
1.79 min | B29
7.6 min | B30
1.61 min | B31
1.59 min | B32
1.55 min | B33
1.78 min | B34
8.1 min | B35
2.7 min | B36
1.54 min | B37
3.2 min | B38
1.55 min | B39
1.18 min | B40
1.3 min | B41
3.8 min | B42
3.5 min | B43
1.46 min | B44
0.7 min | B45
1.88 min | B46
0.81 min | B47
